Starred links: 1 amine or outer side, 2 acyl side, 3 side chain; linkers in the order of their positions; H or OH if unused. Positions of bridges follow the written chain, without caps; N, C: chain ends. Non-standard residues stand in square brackets, D forms with d. Primed or numbered codes have the meaning given here. No end group written: not given here. Dab(acetyl)″ = 2-amino-4-(acetylamino)butanoic acid, acetyl CH3 carbon bonded to the S of Hcy (S-CH2-C(=O)-NH-), O=C(C[*:3])NCC[C@H](N[*:1])C(=O)[*:2]; Dab(acetyl) = 2-amino-4-acetylamino-butanoic acid residue (N-γ-acetyl-diaminobutyric acid), CC(=O)NCC[C@H](N[*:1])C(=O)[*:2]; Orn(acetyl)″ = N-delta-acetyl-ornithine, acetyl CH3 carbon bonded to the S of Hcy, O=C(C[*:3])NCCC[C@H](N[*:1])C(=O)[*:2]; Lys(acetyl) = N-epsilon-acetyl-lysine, acetyl CH3 carbon bonded to the S of Hcy, O=C(C[*:3])NCCCC[C@H](N[*:1])C(=O)[*:2]; Dab(acetyl)(3) = 2-amino-4-(acetylamino)butanoic acid (Dab with N-γ-acetyl), CC(=O)NCC[C@H](N[*:1])C(=O)[*:2]; Dap(acetyl) = 2-amino-3-acetylamino-propanoic acid residue, CC(=O)NC[C@H](N[*:1])C(=O)[*:2]; Orn(acetyl) = N-δ-acetyl-ornithine residue, CC(=O)NCCC[C@H](N[*:1])C(=O)[*:2]; COCH2 = acetyl group that carries the bridge; hCys = N[C@@H](CCS)C(=O)O; Dab = NCC[C@H](N)C(=O)O

The target of assay [1] is T1, human integrin αvβ5 (human, UniProt P06756 31-992; P18084 24-719, limits assumed).
T1 construct: Heterodimer flowed as analyte at 30, 100, 300 and 1,000 nM in HEPES buffer with 5 mM MgCl2
T1 sequence (P06756 31-992 limits assumed, chain 1 of 2): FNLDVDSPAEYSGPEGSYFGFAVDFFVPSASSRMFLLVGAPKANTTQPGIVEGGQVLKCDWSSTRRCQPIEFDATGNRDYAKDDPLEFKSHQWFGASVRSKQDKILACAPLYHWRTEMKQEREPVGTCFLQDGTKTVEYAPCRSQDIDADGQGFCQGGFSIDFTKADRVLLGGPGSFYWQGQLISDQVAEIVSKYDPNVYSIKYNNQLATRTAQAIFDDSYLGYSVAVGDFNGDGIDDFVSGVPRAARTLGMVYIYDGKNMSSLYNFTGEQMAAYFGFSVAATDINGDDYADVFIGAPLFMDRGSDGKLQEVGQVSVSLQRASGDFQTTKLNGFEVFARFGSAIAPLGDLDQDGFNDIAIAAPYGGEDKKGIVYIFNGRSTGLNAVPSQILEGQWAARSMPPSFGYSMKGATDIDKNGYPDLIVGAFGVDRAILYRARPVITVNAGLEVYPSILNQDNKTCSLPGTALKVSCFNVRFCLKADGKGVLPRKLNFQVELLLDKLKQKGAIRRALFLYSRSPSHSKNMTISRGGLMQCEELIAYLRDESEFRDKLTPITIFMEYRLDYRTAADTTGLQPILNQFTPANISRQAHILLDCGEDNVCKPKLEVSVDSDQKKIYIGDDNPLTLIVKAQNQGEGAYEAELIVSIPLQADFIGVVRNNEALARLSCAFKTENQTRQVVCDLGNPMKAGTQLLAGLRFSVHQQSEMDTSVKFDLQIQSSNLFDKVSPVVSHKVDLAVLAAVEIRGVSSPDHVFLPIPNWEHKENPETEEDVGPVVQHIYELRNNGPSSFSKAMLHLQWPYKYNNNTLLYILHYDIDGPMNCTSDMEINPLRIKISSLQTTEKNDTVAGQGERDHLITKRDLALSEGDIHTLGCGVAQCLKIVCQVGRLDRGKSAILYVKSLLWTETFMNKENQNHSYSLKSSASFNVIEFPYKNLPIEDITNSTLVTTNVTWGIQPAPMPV
T1 sequence (P18084 24-719 limits assumed, chain 2 of 2): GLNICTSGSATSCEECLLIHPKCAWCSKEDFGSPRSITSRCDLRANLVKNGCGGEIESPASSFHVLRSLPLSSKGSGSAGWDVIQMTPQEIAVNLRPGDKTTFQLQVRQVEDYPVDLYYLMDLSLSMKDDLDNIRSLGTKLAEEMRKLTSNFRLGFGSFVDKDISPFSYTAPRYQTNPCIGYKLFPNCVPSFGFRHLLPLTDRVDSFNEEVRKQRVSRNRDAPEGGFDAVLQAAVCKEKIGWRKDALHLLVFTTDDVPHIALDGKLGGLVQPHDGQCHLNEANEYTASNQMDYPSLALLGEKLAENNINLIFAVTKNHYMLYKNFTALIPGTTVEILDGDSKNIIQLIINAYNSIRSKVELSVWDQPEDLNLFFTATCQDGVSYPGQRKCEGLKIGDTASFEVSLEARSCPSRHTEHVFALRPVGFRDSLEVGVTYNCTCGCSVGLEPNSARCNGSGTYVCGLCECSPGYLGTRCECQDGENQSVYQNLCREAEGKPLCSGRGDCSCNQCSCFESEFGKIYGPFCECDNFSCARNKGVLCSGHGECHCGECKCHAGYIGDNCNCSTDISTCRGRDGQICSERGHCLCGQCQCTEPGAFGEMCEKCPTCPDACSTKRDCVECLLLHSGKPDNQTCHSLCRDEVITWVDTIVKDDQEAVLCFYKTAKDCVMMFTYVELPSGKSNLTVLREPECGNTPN
As to the kind of experiment: SPR, Biacore 3000, peptide immobilised; A = KD 50 nM or less. The procedure: (§1) However, only for the cyclic peptides 125, 126, and 127, in which the number of lysine residues having an amino group as the immobilizing functional group was zero, the amount of the sample solution to be supplied to the sensor chip was set to 500 μL instead of 20 μL. Further, 70 μL of the mixed aqueous solution of 0.2 M EDC and 0.04 M NHS was added to another flow channel of the same sensor chip without immobilizing the sample, and then blocking treatment and washing treatment were carried out. Hereinafter, the obtained immobilization-treated sensor chip is referred to as an “immobilization-treated sensor chip A”.
(§2) After adding human integrin αvβ5 for 10 minutes at 25° C., which was diluted to 30 nM using a HEPES buffer solution to which magnesium chloride was added to 5 mM, in each flow channel of the immobilization-treated sensor chip A prepared in (1) above, the same HEPES buffer solution (containing 5 mM magnesium chloride) was allowed to flow as a running buffer for 30 minutes, and measurement was carried out with Biacore 3000. Then, a regeneration treatment of removing human integrin αvβ5 was carried out by allowing a 0.5 M EDTA aqueous solution to flow through each flow channel for 10 minutes. Further, the above-described measurement process consisting of adding integrin for 10 minutes, allowing a running buffer to flow for 30 minutes, carrying out measurement with Biacore 3000, and carrying out regeneration treatment with 0.5 M EDTA aqueous solution was carried out in the same manner for 100 nM human integrin αvβ5, 300 nM human integrin αvβ5, and 1,000 nM human integrin αvβ5. Dissociation constant between the cyclic peptide and human integrin αvβ5 was calculated from the difference between the value measured by Biacore 3000 in the flow channel immobilized with the cyclic peptide and the value measured by Biacore 3000 in the flow channel unimmobilized with the cyclic peptide, in a case where each concentration of human integrin αvβ5 was allowed to flow, and the integrin binding property was evaluated according to the following evaluation standards. It is preferable that the evaluation result satisfies the evaluation standard A, B, or C.

Assay [2] addresses T1, human integrin αvβ5. As to the kind of experiment: SPR, Biacore 3000, peptide immobilised; B = KD more than 50 nM and 100 nM or less. The protocol:
as §1, §2

In the case of KKKG[hCys]IPRGDTF[Dab(acetyl)″]A (thioether 5-13) [Cyclic peptide 58], the “dissociation constant (KD)” value with human integrin αvβ5 [1] was not above 50 nM.

As to KKK[hCys]IPRGDNFRAA[Dab](COCH2)A (thioether 4-15) [Cyclic peptide 19], the “dissociation constant (KD)” value with human integrin αvβ5 [1] was not above 50 nM.

B1: Cyclic peptide 130 (peptide)
peptide: KKKGXIPRGDTFRXA
modifications: not fully specified; KKKG-(Pen)-IPRGDTFR(Orn(acetyl))A; thioether bond Pen-Orn(acetyl)
B1: in the assay with human integrin αvβ5 [1], the dissociation constant is not above 50 nM.

Take KKKA[hCys]IPRGDNYR[Dab](COCH2)D (thioether 5-14) [Cyclic peptide 30]: the “dissociation constant (KD)” value with human integrin αvβ5 [1] was not above 50 nM. As for KKKA[hCys]EPRGDNFR[Dab](COCH2)D (thioether 5-14) [Cyclic peptide 34], the “dissociation constant (KD)” value with human integrin αvβ5 [1] is not above 50 nM.

As to KKKE[hCys]EPRGDNYR[Dab](COCH2)D (thioether 5-14) [Cyclic peptide 39], the “dissociation constant (KD)” value with human integrin αvβ5 [1] was not above 50 nM.

Regarding KKKA[hCys]YPRGDNYR[Dab](COCH2)D (thioether 5-14) [Cyclic peptide 32], in the assay with human integrin αvβ5 [1], the “dissociation constant (KD)” value was not above 50 nM. Consider KKKA[hCys]LPRGDNYR[Dab](COCH2)D (thioether 5-14) [Cyclic peptide 31], for which the “dissociation constant (KD)” value with human integrin αvβ5 [1] is not above 50 nM.

Consider KKKG[hCys]IPRGDTFR[Lys(acetyl)]A (thioether 5-14) [Cyclic peptide 116], for which the dissociation constant in the assay with human integrin αvβ5 [1] was not above 50 nM. For the molecule KKKG[Dab(acetyl)″]IPRGDTFR[hCys]A (thioether 5-14) [Cyclic peptide 118], in the assay with human integrin αvβ5 [1], the dissociation constant is not above 50 nM. In the assay with human integrin αvβ5 [1], KKKG[Orn(acetyl)]IPRGDTFRCA (thioether 5-14) [Cyclic peptide 139] registered a dissociation constant not above 50 nM. With KKKG[hCys]LPRGDSFR[Dab](COCH2)A (thioether 5-14) [Cyclic peptide 28], in the assay with human integrin αvβ5 [2], the “dissociation constant (KD)” value is 50 to 100 nM.

B2: Cyclic peptide 80 (peptide)
peptide: KKKAXIPRGDTPRXA
modifications: not fully specified; KKKA-(Hcy)-IPRGDTPR(Dab(acetyl))A; thioether bond Hcy-Dab(acetyl)
Take B2: the dissociation constant with human integrin αvβ5 [2] lay within 50 to 100 nM.

B3: Cyclic peptide 72 (peptide)
peptide: KKKGXIPRGDSFRXA
modifications: not fully specified; KKKG-(Hcy)-IPRGDSFR(Dab(acetyl))A; thioether bond Hcy-Dab(acetyl)
As for B3, the dissociation constant in the assay with human integrin αvβ5 [2] lay within 50 to 100 nM.

B4: Cyclic peptide 76 (peptide)
peptide: KKKAXITRGDTFRXA
modifications: not fully specified; KKKA-(Hcy)-ITRGDTFR(Dab(acetyl))A; thioether bond Hcy-Dab(acetyl)
In the assay with human integrin αvβ5 [2], B4 had a dissociation constant of 50 to 100 nM.

B5: Cyclic peptide 79 (peptide)
peptide: KKKAXIPRGDAFRXA
modifications: not fully specified; KKKA-(Hcy)-IPRGDAFR(Dab(acetyl))A; thioether bond Hcy-Dab(acetyl)
B5 came in with a dissociation constant in the assay with human integrin αvβ5 [2] of 50 to 100 nM.

B6: Cyclic peptide 13 (peptide)
peptide: KKKXIPRGDNFX
modifications: not fully specified; KKK-(Hcy)-IPRGDNF(Dab(acetyl)); thioether bond Hcy-Dab(acetyl)
In the case of B6, the “dissociation constant (KD)” value with human integrin αvβ5 [1] is not above 50 nM. Take KKK[hCys]VPRGDVF[Dab(acetyl)″] (thioether 4-12) [Cyclic peptide 66]: the dissociation constant with human integrin αvβ5 [1] is not above 50 nM. Still for that read-out and setting: to KKK[hCys]VPRGDTF[Dab(acetyl)″] (thioether 4-12) [Cyclic peptide 64] belongs not above 50 nM; to KKK[hCys]IPRGDTF[Dab(acetyl)″] (thioether 4-12) [Cyclic peptide 63], not above 50 nM. Consider KKK[hCys]VPRGDNF[Dab(acetyl)] (thioether 4-12) [Cyclic peptide 14], for which, in the assay with human integrin αvβ5 [1], the “dissociation constant (KD)” value was not above 50 nM.

B7: Cyclic peptide 68 (peptide)
peptide: KKKGXXPRGDTFRXA
modifications: not fully specified; KKKG-(Hcy)-(HmY)-PRGDTFR(Dab(acetyl))A; HmY = homotyrosine; thioether bond Hcy-Dab(acetyl)
In turn, B7 came in with a dissociation constant in the assay with human integrin αvβ5 [1] not above 50 nM.

B8: Cyclic peptide 128 (peptide)
peptide: KKKGXIPRGDTFRXA
modifications: not fully specified; KKKG-(Pen)-IPRGDTFR(Dap(acetyl))A; thioether bond Pen-Dap(acetyl)
For B8, in the assay with human integrin αvβ5 [1], the dissociation constant is not above 50 nM.

B9: Cyclic peptide 125 (peptide)
peptide: AXVPRGDTFAXA
modifications: not fully specified; A-(Hcy)-VPRGDTFA(Dab(acetyl))A; thioether bond Hcy-Dab(acetyl)
notes: no lysine
The molecule B9 yielded a dissociation constant in the assay with human integrin αvβ5 [1] not above 50 nM.

Molecule KKKG[hCys]AIPRGDTFRA[Dab(acetyl)″]A (thioether 5-16) [Cyclic peptide 67] returned a dissociation constant in the assay with human integrin αvβ5 [1] not above 50 nM. KKKKA[hCys]VPRGDTFA[Dab(acetyl)(3)]A (thioether 6-15) [Cyclic peptide 110] had a dissociation constant in the assay with human integrin αvβ5 [1] not above 50 nM.

B10: Cyclic peptide 7 (peptide)
peptide: KKKGXIPRGDNFRX
modifications: not fully specified; KKKG-(Hcy)-IPRGDNFR(Dab(acetyl)); thioether bond Hcy-Dab(acetyl)
Consider B10, for which the “dissociation constant (KD)” value in the assay with human integrin αvβ5 [1] is not above 50 nM. For KKKG[hCys]IPRGDTFR[Dab(acetyl)″] (thioether 5-14) [Cyclic peptide 59], the “dissociation constant (KD)” value in the assay with human integrin αvβ5 [1] is not above 50 nM.

As to KKKKKKA[hCys]VPRGDTFA[Dab(acetyl)″]A (thioether 8-17) [Cyclic peptide 112], the dissociation constant with human integrin αvβ5 [1] is not above 50 nM.

B11: Cyclic peptide 126 (peptide)
peptide: AXIPRGDSFAXA
modifications: not fully specified; A-(Hcy)-IPRGDSFA(Dab(acetyl))A; thioether bond Hcy-Dab(acetyl)
notes: no lysine
Molecule B11 yielded a dissociation constant with human integrin αvβ5 [1] not above 50 nM.

B12: Cyclic peptide 127 (peptide)
peptide: AXIPRGDSFAXG
modifications: not fully specified; A-(Hcy)-IPRGDSFA(Dab(acetyl))G; thioether bond Hcy-Dab(acetyl)
notes: no lysine
Turning to B12, the dissociation constant in the assay with human integrin αvβ5 [1] is not above 50 nM.

B13: Cyclic peptide 134 (peptide)
peptide: KKKGXIPRGDTFRXA
modifications: not fully specified; KKKG(Orn(acetyl))IPRGDTFR-(Pen)-A; thioether bond Orn(acetyl)-Pen
B13: the dissociation constant with human integrin αvβ5 [1] was not above 50 nM.

B14: Cyclic peptide 132 (peptide)
peptide: KKKGXIPRGDTFRXA
modifications: not fully specified; KKKG(Dap(acetyl))IPRGDTFR-(Pen)-A; thioether bond Dap(acetyl)-Pen
In turn, B14 displayed a dissociation constant in the assay with human integrin αvβ5 [1] not above 50 nM. As for KKK[hCys]IPRGDNFR[Dab](COCH2)A (thioether 4-13) [Cyclic peptide 3], in the assay with human integrin αvβ5 [1], the “dissociation constant (KD)” value was not above 50 nM. KKK[hCys]VPRGDNFR[Dab](COCH2)A (thioether 4-13) [Cyclic peptide 21]: in the assay with human integrin αvβ5 [1], the “dissociation constant (KD)” value is not above 50 nM.

As for KKK[hCys]EPRGDNFR[Dab](COCH2)A (thioether 4-13) [Cyclic peptide 23], the “dissociation constant (KD)” value in the assay with human integrin αvβ5 [1] is not above 50 nM. As for KKK[hCys]IPRGDTFR[Dab(acetyl)″]A (thioether 4-13) [Cyclic peptide 57], the “dissociation constant (KD)” value with human integrin αvβ5 [1] was not above 50 nM. On to KKK[hCys]IPRGDNFR[Dab(acetyl)″]D (thioether 4-13) [Cyclic peptide 5], for which the “dissociation constant (KD)” value with human integrin αvβ5 [1] was not above 50 nM. In the case of KKK[hCys]IPRGDNFR[Dab](COCH2)G (thioether 4-13) [Cyclic peptide 4], the “dissociation constant (KD)” value in the assay with human integrin αvβ5 [1] was not above 50 nM. With KKK[hCys]YPRGDNFR[Dab](COCH2)A (thioether 4-13) [Cyclic peptide 24], the “dissociation constant (KD)” value with human integrin αvβ5 [1] was not above 50 nM. Regarding KKKG[hCys]IPRGDTFR[Orn(acetyl)″]A (thioether 5-14) [Cyclic peptide 115], the dissociation constant with human integrin αvβ5 [1] was not above 50 nM.

As for KKKG[Dap(acetyl)]IPRGDTFR[hCys]A (thioether 5-14) [Cyclic peptide 117], the dissociation constant in the assay with human integrin αvβ5 [1] was not above 50 nM. Molecule KKKG[hCys]IPRGDTFR[Dap(acetyl)]A (thioether 5-14) [Cyclic peptide 114] came in with a dissociation constant with human integrin αvβ5 [1] not above 50 nM. For KKKA[Dap(acetyl)]EPRGDNYR[hCys]D (thioether 5-14) [Cyclic peptide 48], the “dissociation constant (KD)” value in the assay with human integrin αvβ5 [1] was not above 50 nM.

B15: Cyclic peptide 119 (peptide)
peptide: KKKGXIPRGDTFRXA
modifications: not fully specified; KKKG(Orn(acetyl))IPRGDTFR-(Hcy)-A; thioether bond Orn(acetyl)-Hcy
Take B15: the dissociation constant in the assay with human integrin αvβ5 [1] is not above 50 nM.

KKKKKA[hCys]VPRGDTFA[Dab(acetyl)″]A (thioether 7-16) [Cyclic peptide 111] gave a dissociation constant with human integrin αvβ5 [1] not above 50 nM.
